Experimental data from PMC12689202.

target: C3b (biotinylated) (human) (UniProt P01024); experiment: BLI; Octet RH384 (Sartorius); biotinylated C3b immobilized onto streptavidin biosensors; mini-CR1, FH or FHL-1 in the fluid phase

In order of rising Kd:
1. mini-CR1 (soluble fragment of complement receptor 1, complement control proteins 8-10) (domain or fragment)  0.021 µM
2. factor H (from UniProt P08603 19-1231) (natural protein)  0.583 µM
3. factor H-like protein 1 (from UniProt P08603-2 19-449) (natural protein)  1.17 µM
